The assay has as its target PTH receptor ("PTHIR"). The assay can be described thus: cell-based or functional assay.

These results are taken from patent US20250257112A1.

“PTH(1-84)-Fc with F34A, V35S (Fc fusion)”: the cAMP potency (EC50) stood at 280 pM.

As for “PTH-66, PTH(1-74)-[F34A, V35S]-hFcLALA-deltaLys (Fc fusion)”, the cAMP potency (EC50) is 240 pM.

In the case of “PTH-67, PTH(1-64)-[F34A, V35S]-hFcLALA-deltaLys (Fc fusion)”, the cAMP potency (EC50) is 240 pM.

On to “PTH-68, PTH(1-54)-[F34A, V35S]-hFcLALA-deltaLys (Fc fusion)”, for which the cAMP potency (EC50) amounted to 210 pM.
